Measurements from patent US9012186B2, “Hemicellulose-degrading enzymes” (The Board of Trustees of the University of Illinois, priority 2009, dated 2015).
Positions count from the first letter of the chain named. Names may count otherwise.

Assays:
Type in all cases: biochemical, Prevotella bryantii
[1] = substrate: O=[N+]([O-])c1ccc(O[C@@H]2OC[C@@H](O)[C@H](O)[C@H]2O)cc1; assay: Steady state kinetics of pNP substrate hydrolysis, Pb911 WT; settings: other: Pb911 WT, pNP assay per Example 2 (sodium citrate, pH 5.5, 37° C.)
Procedure: (§1) Enzyme-catalyzed hydrolysis of para-nitrophenyl (pNP)-linked monosaccharide substrates was assayed using a thermostated Synergy II multi-mode microplate reader from BioTek Instruments Inc. (Winooski, Vt.). A library of pNP substrates were screened for activity including: pNP-α-L-arabinopyranoside, pNP-α-L-arabinofuranoside, pNP-β-D-fucopyranoside, pNP-α-L-fucopyranoside, pNP-α-D-galactopyranoside, pNP-β-D-galactopyranoside, pNP-α-D-glucopyranoside, pNP-β-D-glucopyranoside, pNP-β-D-maltopyranoside, pNP-α-D-maltopyranoside, pNP-α-D-mannopyranoside, pNP-β-D-mannopyranoside, pNP-α-L-rhamnopyranoside, pNP-β-D-xylopyranoside, pNP-β-D-cellobioside. The substrates (1 mM) in citrate buffer (100 μL; 50 mM sodium citrate, 150 mM NaCl, pH 5.5) were incubated at 37° C. in the presence or absence of Pb886 (0.2 μM) for 30 min, and the level of pNP release was determined by continuously monitoring the absorbance at 400 nm. The pathlength correction feature of the instrument was employed to convert the absorbance values recorded to correspond to a 1 cm pathlength. The extinction coefficient for pNP at pH 5.5 and a wavelength of 400 nm was measured as 0.673 mM^−1cm^−1.
(§2) FIG. 4c illustrates the kinetics of pNP substrate hydrolysis. The activity of Pb886 was verified with para-nitrophenyl derivatives of xylose and arabinose as indicated in the x-axes. These substrates are artificial substrates for the enzyme. Kinetic studies of Pb886 were performed using a thermostated Synergy II multi-mode microplate reader from BioTek Instruments Inc. (Winooski, Vt.). pNP-β-D-Xylopyranoside (0-46.25 mM) or pNP-α-L-arabinofuranoside (0-25 mM) were incubated in a citrate reaction buffer (100 μL; 50 mM sodium citrate, 150 mM NaCl, pH 5.5) at 37° C. in a 96-well flat bottom microtiter plate, and reactions were initiated by the addition of Pb886 (0.2 μM). Hydrolysis of pNP-β-D-xylopyranoside and pNP-α-L-arabinofuranoside were continuously monitored by recording the UV signal at 400 nm. Initial rate data were then plotted against the substrate concentration, and kinetic values were estimated by applying a nonlinear curve fit using GraphPad Prism v5.02 from GraphPad Software (San Diego, Calif.). The extinction coefficient for para-nitrophenol at pH 5.5 and a wavelength of 400 nm was measured as 0.673 mM^−1cm^−1.
(§3) Pb911 protein was expressed and purified according to the methods described in Example 1. […] The activity of Pb911 on pNP substrates was measured according to the methods described in Example 2.

[2] = substrate: O=[N+]([O-])c1ccc(O[C@@H]2O[C@H](CO)[C@@H](O)[C@H](O)[C@H]2O)cc1; assay: as above; settings: other: Pb911 WT, pNP assay per Example 2 (sodium citrate, pH 5.5, 37° C.)
Procedure: as §1, §2, §3

[3] = substrate: O=[N+]([O-])c1ccc(O[C@@H]2OC[C@@H](O)[C@H](O)[C@H]2O)cc1; assay: Steady state kinetics of pNP substrate hydrolysis, Pb911 E115A; settings: other: Pb911 E115A, pNP assay per Example 2 (sodium citrate, pH 5.5, 37° C.)
Procedure: as §1, §2, §3

[4] = substrate: O=[N+]([O-])c1ccc(O[C@@H]2O[C@H](CO)[C@@H](O)[C@H](O)[C@H]2O)cc1; assay: as above; settings: other: Pb911 E115A, pNP assay per Example 2 (sodium citrate, pH 5.5, 37° C.)
Procedure: as §1, §2, §3

[5] = substrate: O=[N+]([O-])c1ccc(O[C@@H]2OC[C@@H](O)[C@H](O)[C@H]2O)cc1; assay: Steady state kinetics of pNP substrate hydrolysis, Pb911 E115D; settings: other: Pb911 E115D, pNP assay per Example 2 (sodium citrate, pH 5.5, 37° C.)
Procedure: as §1, §2, §3

[6] = substrate: O=[N+]([O-])c1ccc(O[C@@H]2O[C@H](CO)[C@@H](O)[C@H](O)[C@H]2O)cc1; assay: as above; settings: other: Pb911 E115D, pNP assay per Example 2 (sodium citrate, pH 5.5, 37° C.)
Procedure: as §1, §2, §3

B1: Prevotella bryantii β-xylosidase/β-glucosidase Pb911 (alternatively named Pb2369), wild type, SEQ ID NO: 6 (Segatella baroniae B14) (protein)
chain: QTILINQQVDALYDRMSQEERINQLRSGYMDDLFDEQGNLDTVKCKELIPFGIGHFSQYASQKPLDANILRDRVAAVQDWLIHHTPNGIPALFHEEVLSGVNTKDATIYPQQIGQACSFNPELAERKTLQTGIDMRKMGGVLSLSPMVDVCRNPSFNRLEESYGEDGYLSAVMGTAFVKGLQQGDLTKGVGACSKHYLGYGGGGDAKEKEMMEEILLPHETMIRLAGSKALMPGYHAVHGTNCVANHEILTDILRGYLGFDGMVVSDYTAIDQIPGLDTPLQKATAAINAGNDVDFPHGANYKFLQEGLDKGMVKSEAFERAVKDVLRHKYRQGLFDKNAYLYSKDPIQLDSKEERQTAYDIATQSVVLLENKGILPLRGKQNIFVTGPNANTMWAMCGDYSFPAMTYFWKKVTEDLDHPHIVKLLEGMKDRKPAGINISYSRGCDWTDTIETKYAVSGDERAWEYEVLHRKVDSGEKADETEALAMAKEADVIIAAVGENVMLCGENRDRQGLCLPGHQEQYVERLLATGKPVVLVVFGGRAQVISNIANRCAAVIQAWYPGEEGGHAVADILYGNVSPSAKLSVSYPNVELNEPICYNYSAKQDSRVAWPFGYGLSYTTFDYSNLEVPTEVKTSDESLHIAFEVANTGKMDADEIAQVYLSPTQENQNIRPIQLQGFARISLKAGERKKVKVKLYTEQFGYYSNNGKRQWNIAPGTFTVKIGASSQDIKLQKNITVKGDIVVKPLRDFYFSEVIK
- Km [1]: 8.4 ± 1 mM
- kcat [1]: 250 ± 10 s⁻¹
- kcat/Km [1]: 30000 ± 4000 M⁻¹ s⁻¹
- Km [2]: 22 ± 1 mM
- kcat [2]: 19 ± 0.6 s⁻¹
- kcat/Km [2]: 860 ± 50 M⁻¹ s⁻¹

B2: Prevotella bryantii β-xylosidase/β-glucosidase Pb911 (alternatively named Pb2369, wild type SEQ ID NO: 6) variant E115A (Segatella baroniae B14; E115A) (protein)
chain: B1 chain with E96A
- Km [3]: 28 ± 3 mM
- kcat [3]: 0.35 ± 0.02 s⁻¹
- kcat/Km [3]: 13 ± 2 M⁻¹ s⁻¹
- Km [4]: 39 ± 4 mM
- kcat [4]: 0.087 ± 0.005 s⁻¹
- kcat/Km [4]: 2.2 ± 0.3 M⁻¹ s⁻¹

B3: Prevotella bryantii β-xylosidase/β-glucosidase Pb911 (alternatively named Pb2369, wild type SEQ ID NO: 6) variant E115D (Segatella baroniae B14; E115D) (protein)
chain: B1 chain with E96D
- Km [5]: 39 ± 4 mM
- kcat [5]: 87 ± 5 s⁻¹
- kcat/Km [5]: 2200 ± 200 M⁻¹ s⁻¹
- Km [6]: 17 ± 1 mM
- kcat [6]: 16 ± 0.4 s⁻¹
- kcat/Km [6]: 940 ± 60 M⁻¹ s⁻¹
